Molecular target: zo2_human TJP2 (UniProt Q9UDY2)
Sequence (Q9UDY2 whole entry): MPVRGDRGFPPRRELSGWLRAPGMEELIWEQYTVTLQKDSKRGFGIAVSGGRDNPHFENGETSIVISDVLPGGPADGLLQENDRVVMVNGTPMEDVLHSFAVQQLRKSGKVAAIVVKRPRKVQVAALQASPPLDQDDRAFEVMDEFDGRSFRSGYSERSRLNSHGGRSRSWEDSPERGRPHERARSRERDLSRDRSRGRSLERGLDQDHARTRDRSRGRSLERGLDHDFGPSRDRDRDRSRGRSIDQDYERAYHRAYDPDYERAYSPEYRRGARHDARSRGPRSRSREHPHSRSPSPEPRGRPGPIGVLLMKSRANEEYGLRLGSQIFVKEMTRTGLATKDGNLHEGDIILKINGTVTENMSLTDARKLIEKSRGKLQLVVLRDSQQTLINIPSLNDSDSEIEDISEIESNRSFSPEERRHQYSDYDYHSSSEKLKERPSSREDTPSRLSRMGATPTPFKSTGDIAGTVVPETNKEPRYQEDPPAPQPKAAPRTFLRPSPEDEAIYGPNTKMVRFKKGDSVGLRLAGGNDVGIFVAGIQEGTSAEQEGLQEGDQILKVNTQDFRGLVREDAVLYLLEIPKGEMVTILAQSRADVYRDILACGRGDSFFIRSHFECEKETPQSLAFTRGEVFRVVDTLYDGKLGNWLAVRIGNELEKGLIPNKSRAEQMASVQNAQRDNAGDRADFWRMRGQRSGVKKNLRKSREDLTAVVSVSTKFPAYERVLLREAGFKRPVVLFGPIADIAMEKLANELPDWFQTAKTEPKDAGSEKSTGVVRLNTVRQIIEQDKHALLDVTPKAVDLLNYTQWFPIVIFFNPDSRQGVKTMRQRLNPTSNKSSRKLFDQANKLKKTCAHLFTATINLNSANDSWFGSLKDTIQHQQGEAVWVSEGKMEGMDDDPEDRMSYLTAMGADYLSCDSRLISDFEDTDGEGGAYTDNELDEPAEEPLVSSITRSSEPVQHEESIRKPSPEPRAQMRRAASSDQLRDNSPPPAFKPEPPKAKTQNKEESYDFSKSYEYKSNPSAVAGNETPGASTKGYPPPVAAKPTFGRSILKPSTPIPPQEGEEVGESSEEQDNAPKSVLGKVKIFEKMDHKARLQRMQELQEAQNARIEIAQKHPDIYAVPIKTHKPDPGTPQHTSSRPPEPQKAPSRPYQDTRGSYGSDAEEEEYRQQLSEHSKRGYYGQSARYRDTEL

Sequence of Protein scribble homolog (Homo sapiens), Q14160-1 P305L (Q14160 other isoform, or with tags, fused parts or gaps P305L): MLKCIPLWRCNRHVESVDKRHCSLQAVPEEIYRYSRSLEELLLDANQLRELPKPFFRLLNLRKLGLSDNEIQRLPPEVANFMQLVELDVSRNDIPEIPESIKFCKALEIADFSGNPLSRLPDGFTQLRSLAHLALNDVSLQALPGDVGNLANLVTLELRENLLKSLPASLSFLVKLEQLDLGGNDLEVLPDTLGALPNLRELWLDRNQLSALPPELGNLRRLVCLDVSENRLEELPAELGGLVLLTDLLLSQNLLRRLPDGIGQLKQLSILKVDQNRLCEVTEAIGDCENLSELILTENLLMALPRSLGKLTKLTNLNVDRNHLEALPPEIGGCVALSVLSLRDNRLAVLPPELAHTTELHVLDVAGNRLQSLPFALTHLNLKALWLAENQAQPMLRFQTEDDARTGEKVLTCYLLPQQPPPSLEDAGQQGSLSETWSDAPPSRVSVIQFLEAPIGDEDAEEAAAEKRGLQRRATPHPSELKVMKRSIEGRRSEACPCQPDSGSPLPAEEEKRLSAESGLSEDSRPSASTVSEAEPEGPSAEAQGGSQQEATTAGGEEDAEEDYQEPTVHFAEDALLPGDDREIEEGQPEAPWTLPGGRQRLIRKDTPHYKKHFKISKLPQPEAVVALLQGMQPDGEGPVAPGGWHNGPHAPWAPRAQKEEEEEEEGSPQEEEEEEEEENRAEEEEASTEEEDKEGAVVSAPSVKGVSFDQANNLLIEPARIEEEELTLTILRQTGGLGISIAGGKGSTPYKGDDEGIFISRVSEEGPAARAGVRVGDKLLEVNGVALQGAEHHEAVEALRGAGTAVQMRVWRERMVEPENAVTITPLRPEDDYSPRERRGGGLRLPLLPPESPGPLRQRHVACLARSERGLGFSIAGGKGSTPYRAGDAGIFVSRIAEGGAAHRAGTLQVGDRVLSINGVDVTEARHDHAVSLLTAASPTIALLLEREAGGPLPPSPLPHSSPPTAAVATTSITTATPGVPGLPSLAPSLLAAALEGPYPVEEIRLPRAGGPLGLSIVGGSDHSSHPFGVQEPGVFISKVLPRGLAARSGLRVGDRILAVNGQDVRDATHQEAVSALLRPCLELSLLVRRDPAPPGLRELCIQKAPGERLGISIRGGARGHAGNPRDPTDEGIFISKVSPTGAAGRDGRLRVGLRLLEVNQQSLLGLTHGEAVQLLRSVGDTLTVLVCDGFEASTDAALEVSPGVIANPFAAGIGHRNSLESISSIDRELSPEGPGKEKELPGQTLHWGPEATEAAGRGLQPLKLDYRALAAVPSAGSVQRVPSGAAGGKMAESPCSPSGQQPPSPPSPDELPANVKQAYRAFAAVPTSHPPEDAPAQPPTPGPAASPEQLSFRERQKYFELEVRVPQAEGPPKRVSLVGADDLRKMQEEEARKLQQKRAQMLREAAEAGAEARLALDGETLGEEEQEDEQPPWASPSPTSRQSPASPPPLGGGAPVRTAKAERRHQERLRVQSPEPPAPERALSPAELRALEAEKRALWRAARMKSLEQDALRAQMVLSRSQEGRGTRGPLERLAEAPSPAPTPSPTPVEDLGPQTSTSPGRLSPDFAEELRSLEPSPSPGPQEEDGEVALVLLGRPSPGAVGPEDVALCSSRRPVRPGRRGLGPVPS

effect of a mutation on the interaction: decreasing interaction
Substance: Protein scribble homolog (Homo sapiens), Q14160-1 P305L
